The values below come from patent US20250000950A1, “PRESERVED FORMULATIONS” (ELI LILLY AND COMPANY, priority 2021, published 2025).

The nature of data set [1]: Onset of melting temperature (Tm, Onset) by differential scanning calorimetry (DSC). The format is physicochemical. As to conditions: BIF 2 mg/mL. The method, then:
Biophysical developability/high-throughput profiling studies are conducted on 2 mg/mL formulations of BIF in different buffer matrices and pH conditions. The onset of melting temperature Tm (Tm, Onset) was measured using differential scanning calorimetry (DSC). Tm, Onset is the temperature at which a folded protein starts to lose its native conformation, i.e., the higher the Tm, Onset, the less susceptible a protein to denaturation.
For orientation: DSC measures the heat that a sample takes up or gives off during a temperature scan.

Data set [2] in a line: Isoelectric point of BIF. The format is physicochemical.

B1: insulin efsitora alfa (protein)
chain: FVNQHLCGSHLVEALELVCGERGFHYGGGGGGSGGGGGIVEQCCTSTCSLDQLENYCGGGGGQGGGGQGGGGQGGGGGECPPCPAPPVAGPSVFLFPPKPKDTLMISRTPEVTCVVVDVSHEDPEVQFNWYVDGVEVHNAKTKPREEQFNSTFRVVSVLTVVHQDWLNGKEYKCKVSNKGLPAPIEKTISKTKGQPREPQVYTLPPSREEMTKNQVSLTCLVKGFYPSDIAVEWESNGQPENNYKTTPPMLDSDGSFFLYSKLTVDKSRWQQGNVFSCSVMHEALHNHYTQKSLSLSPG
modifications: homodimer
notes: dimer of an insulin receptor agonist fused to a human IgG Fc region
With B1, the “Tm, Onset” value in data set [1] (Citrate 10 mM, NaCl 25 mM, pH 5.5) came to 60.29 °C; in data set [1] (Citrate 10 mM, NaCl 25 mM, pH 6.0) it was 63.58 °C; in data set [1] (Citrate 10 mM, NaCl 25 mM, pH 6.5), 65.61 °C; in data set [1] (Citrate 10 mM, NaCl 25 mM, pH 7.0), 66.32 °C; in data set [1] (Citrate 10 mM, NaCl 150 mM, pH 5.5), 59.59 °C; in data set [1] (Citrate 10 mM, NaCl 150 mM, pH 6.0), 62.78 °C. The “Tm, Onset” value was 64.76 °C in data set [1] (Citrate 10 mM, NaCl 150 mM, pH 6.5); 65.41 °C in data set [1] (Citrate 10 mM, NaCl 150 mM, pH 7.0); 62.86 °C in data set [1] (Phosphate 10 mM, NaCl 25 mM, pH 6.0); 64.06 °C in data set [1] (Phosphate 10 mM, NaCl 25 mM, pH 6.5); 66.39 °C in data set [1] (Phosphate 10 mM, NaCl 25 mM, pH 7.0); 66.90 °C in data set [1] (Phosphate 10 mM, NaCl 25 mM, pH 7.5). Moreover, the “Tm, Onset” value came out at 63.36 °C in data set [1] (Phosphate 10 mM, NaCl 150 mM, pH 6.0); 64.42 °C in data set [1] (Phosphate 10 mM, NaCl 150 mM, pH 6.5); 65.79 °C in data set [1] (Phosphate 10 mM, NaCl 150 mM, pH 7.0); 66.11 °C in data set [1] (Phosphate 10 mM, NaCl 150 mM, pH 7.5). Also, the “pl (isoelectric point) of BIF” value in data set [2] is given as “≈ 6.1”.
